Consider 25 sequences from the supplement of paper PMC9732359.

± gives the uncertainty stated by the source.

The nature of the data set: protein stability index of a GFP-peptide fusion (yeast GPS) (PSI 1-4); higher = more stable; sorted into four equal gates, so the index is relative within each strain. In short, it runs like this:
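The protein stability index of a peptide was calculated by multiplying its read frequency in each gate by that gate's number and adding the products. The peptides were tiled 17-residue stretches of yeast proteins, fused downstream of GFP on a Cherry-expressing plasmid and carried in yeast as a pooled library. Mid-log cultures in leucine-free medium were sorted into four equal gates by GFP/Cherry ratio, and each gate's plasmids were PCR-amplified and Illumina-sequenced.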

With QNSLLTNTHPNFLSKIR [SNF2], the protein stability index runs as follows: (doa10∆) 2.96 ± 0.073; (pdr5∆) 2.92 ± 0.075; (san1∆) 3.01 ± 0.07; (ubr1∆) 2.94 ± 0.047.

For EELILPNTKDAMSLYHS [PRP8], the protein stability index runs as follows: (doa10∆) 3.18 ± 0.055; (pdr5∆) 3.38 ± 0.043; (san1∆) 3.36 ± 0.04; (ubr1∆) 2.8 ± 0.042.

For the sequence KLRAARAKAMKFADGFL [RPS3], the protein stability index by setting is: (doa10∆) 3.3 ± 0.17; (pdr5∆) 3.03 ± 0.14; (san1∆) 2.44 ± 0.29; (ubr1∆) 3.16 ± 0.065.

Take LLLKDQQTAKKLIPKLY [ECM29]: the protein stability index (doa10∆) was found to be 2.1 ± 0.054, the protein stability index (pdr5∆) came out at 2.46 ± 0.061, the protein stability index (san1∆) was determined as 2.32 ± 0.096 and the protein stability index (ubr1∆) came out at 1.66 ± 0.053.

As to SPIGFTNSPQISVTRQV [SMC2], the protein stability index by setting is: (doa10∆) 2.92 ± 0.052; (pdr5∆) 3.09 ± 0.047; (san1∆) 2.95 ± 0.043; (ubr1∆) 2.79 ± 0.034.

In the case of QNSANNNSDDEDVDDEE [IRR1], the protein stability index runs as follows: (doa10∆) 3.28 ± 0.14; (pdr5∆) 3.22 ± 0.15; (san1∆) 3.62 ± 0.087; (ubr1∆) 3.34 ± 0.1.

Take RKQIQLLKKIIFEKELM [SRB4]: the protein stability index came to 1.93 ± 0.051 (doa10∆), 2.14 ± 0.047 (pdr5∆), 1.86 ± 0.071 (san1∆) and 2.03 ± 0.034 (ubr1∆).

Take AVYETLISRMIFIATQL [BRR2]: the protein stability index (doa10∆) was 1.96 ± 0.072, the protein stability index (pdr5∆) stood at 1.55 ± 0.058, the protein stability index (san1∆) came to 1.29 ± 0.096 and the protein stability index (ubr1∆) is 1.62 ± 0.041.

With DIGKEMSLRHFGHLMHY [RPN1], the protein stability index amounted to 1.26 ± 0.049 (doa10∆), 1.25 ± 0.041 (pdr5∆), 1.23 ± 0.074 (san1∆) and 1.08 ± 0.037 (ubr1∆).

As for THPHAADGSSYMEQGNN [SKI6], the protein stability index by setting is: (doa10∆) 3.05 ± 0.073; (pdr5∆) 3.2 ± 0.063; (san1∆) 3.02 ± 0.052; (ubr1∆) 3.07 ± 0.047.

As to NHNQFECKGCDNKIDIY [RPB2], the protein stability index by setting is: (doa10∆) 3.06 ± 0.044; (pdr5∆) 3.19 ± 0.047; (san1∆) 3.06 ± 0.034; (ubr1∆) 3.1 ± 0.037.

For the sequence QLNASISLIPELSVVLS [RRI2], the protein stability index is, setting by setting: (doa10∆) 2.67 ± 0.064; (pdr5∆) 2.96 ± 0.06; (san1∆) 2.98 ± 0.044; (ubr1∆) 2.73 ± 0.039.

In the case of TEQQIEVPEGVTVSIKS [RPL9A], the protein stability index (doa10∆) worked out at 2.46 ± 0.069, the protein stability index (pdr5∆) worked out at 2.3 ± 0.051, the protein stability index (san1∆) was found to be 1.99 ± 0.073 and the protein stability index (ubr1∆) came to 2.85 ± 0.043.

For the sequence VRDTSPHGISVFLSNLV [BRR2], the protein stability index came to 1.35 ± 0.1 (doa10∆), 1.54 ± 0.077 (pdr5∆), 2.55 ± 0.078 (san1∆) and 2.34 ± 0.049 (ubr1∆).

Turning to QRRCLHCGALNGVVKKA [RPO31], the protein stability index reads like this: (doa10∆) 2.35 ± 0.13; (pdr5∆) 2.54 ± 0.13; (san1∆) 2.41 ± 0.12; (ubr1∆) 2.59 ± 0.11.

As to TAFKATVFFLIRVAETR [YJL039C/NUP192], the protein stability index (doa10∆) stood at 1.53 ± 0.087, the protein stability index (pdr5∆) was determined as 1.22 ± 0.063, the protein stability index (san1∆) was 1.12 ± 0.12 and the protein stability index (ubr1∆) came to 1.47 ± 0.048.

For DNVVRFLNEARDKAGRL [RPO21], the protein stability index reads like this: (doa10∆) 2.48 ± 0.063; (pdr5∆) 1.61 ± 0.056; (san1∆) 2.56 ± 0.14; (ubr1∆) 1.76 ± 0.053.

As to MAGLMHFKKPDITVHGE [RRP45], the protein stability index was determined as 2.89 ± 0.19 (doa10∆), 2.14 ± 0.13 (pdr5∆), 1.76 ± 0.16 (san1∆) and 1.25 ± 0.092 (ubr1∆).

In the case of KGPIIISKNPSNGIFYG [SIR2], the protein stability index worked out at 2.74 ± 0.067 (doa10∆), 2.5 ± 0.061 (pdr5∆), 1.92 ± 0.083 (san1∆) and 2.3 ± 0.053 (ubr1∆).

As to LLKDIFANNLKSAISNN [SIR4], the protein stability index reads like this: (doa10∆) 2.46 ± 0.044; (pdr5∆) 2.48 ± 0.042; (san1∆) 2.44 ± 0.043; (ubr1∆) 2.44 ± 0.037.

In turn, LCTLNDSKGSLYSVKFA [YGL100W/SEH1] returned a protein stability index (doa10∆) of 2.94 ± 0.13, a protein stability index (pdr5∆) of 2.84 ± 0.093, a protein stability index (san1∆) of 2.62 ± 0.058 and a protein stability index (ubr1∆) of 2.49 ± 0.071.

As to TGLNGSGKSNILDAICF [SMC2], the protein stability index (doa10∆) was 3.4 ± 0.12, the protein stability index (pdr5∆) amounted to 2.98 ± 0.093, the protein stability index (san1∆) worked out at 3.28 ± 0.063 and the protein stability index (ubr1∆) came to 3.31 ± 0.054.

On to HKMGVERSSKRLAKKPS [SIR3], for which the protein stability index runs as follows: (doa10∆) 3.33 ± 0.064; (pdr5∆) 3.27 ± 0.067; (san1∆) 3.24 ± 0.043; (ubr1∆) 3.15 ± 0.062.

For the sequence NYHPMNIDETSDEVSRG [SMC4], the protein stability index (doa10∆) turned out to be 3.17 ± 0.082, the protein stability index (pdr5∆) is 3.17 ± 0.064, the protein stability index (san1∆) is 3.23 ± 0.054 and the protein stability index (ubr1∆) was 3.14 ± 0.041.

Regarding ASKGRTKIDMPIKNRKN [BRN1], the protein stability index was found to be 3.21 ± 0.11 (doa10∆), 3.13 ± 0.088 (pdr5∆), 2.91 ± 0.12 (san1∆) and 3.17 ± 0.1 (ubr1∆).
